# Test results taken from patent publication US20100330158A1, “PROTEIN-ASSISTED DRUG DELIVERY SYSTEM FOR THE TARGETED ADMINISTRATION OF ACTIVE AGENTS” (InnoPharma, LLC, priority 2009, published 2010).
# B1: SfaA: Recombinant His-tagged S fimbriae protein sfaA variant from E. coli CFT073, SEQ ID NO: 4 (protein)
# chain: MKYLLPTAAAGLLLLAAQPAMAMDIGINGTGSMGTVHFKGEVVNAACAVNTNSFDQTVNLGQVRSERLKVDGAKSNPVGFTIELNDCDSQVSAGAGIVFSGPAVTGKTDVLALQSSAAGSATNVGVQTDHTGKVVPLDGTASSTFTLTDGTNKIPFQAVYYATGQATAGIANADATFKVQYQLEHHHHHH
# modifications: His tag; E. coli
# B2: SfaS: Recombinant His-tagged S fimbriae protein sfaS variant from E. coli CFT073, SEQ ID NO: 2 (protein)
# chain: MASMTGGQQMGRGSMVDTTITVTGRVLPRTCTIGNGGNPNATVVLDNAYTSDLIAANSTSQWKNFSLTLTNCQNVNNVTATFGGTAENTNYYRNTGDATNIMVELQEQGNGNTPLKVGSTKVVTVSNGQATFNLKVRAVSKGNAGAGSINSQITVTYTYALEHHHHHH
# modifications: His tag; E. coli
# Tested on: bovine brain microvascular endothelial cells (BBMVECs)
# Assay: Flow cytometry binding of FITC-labeled proteins to BBMVECs
# Details: for % of the cells that bind (strongly) to the protein: BBMVECs, 15 minutes; for shift in fluorescence: FITC-labeled protein incubated with BBMVECs at 4° C. (on ice) for 15 minutes
# Protocol: The three E. coli recombinant proteins (SfaS, SfaA, OmpA) produced in Example 1 are labeled with fluorescein isothiocyanate (FITC) to allow fluorescent detection of proteins. The proteins are labeled using the Thermo-Fisher Pierce FITC labeling kit (Thermo Fisher Scientific Inc., Waltham, Mass.) according to the manufacturer's protocol. The amounts of protein used for the labeling reaction are 0.75 mg (SfaS), 0.8 mg (OmpA) and 1.25 mg (SfaA).
# Flow cytometry is performed by incubating the labeled proteins with BBMVECs. These cells are procured from Cell Applications, Inc (San Diego, Calif.). Cells are mixed with FITC proteins (individually) and incubated on ice or at 37° C. for 15 minutes, then washed, and sorted with flow cytometry.
Molecule,% of the cells that bind (strongly) to the protein (4° C. (on ice)) [%],% of the cells that bind (strongly) to the protein (37° C.) [%],shift in fluorescence
B1,~37,~10,significant shift
B2,–,–,less significant shift
